Test results published in patent US20230212319A1, “NOVEL ANTIGEN BINDING DOMAINS AND SYNTHETIC ANTIGEN RECEPTORS INCORPORATING THE SAME” (University of Southern California, priority 2020, published 2023).

B1: CD8SP-CD22-FHVH-24-PSMA71v2-chVH-Myc-CD8TM-BBZ-T2A-PAC (protein)
chain: MALPVTALLLPLALLLHAARPQLQLQESGPGLVKPSETLSLTCTVSGDSISSGDYYWGWIRQPPGKGLEWIGHIYYSGVTYYNPSLKSRVTISVDTSRNQFSLKLSSVTAADTAVYYCTREDSSNWRSRGQGTLVTVSSLESGGGGSFEVQLVESGGGVVQPGRSLRLSCAASGFSFSGYGMHWVRQAPGKGLEWVAYISYDGSNKYYADSVKGRFTISRDNSKNTLYLQMNSLRAEDTAVYYCAKDPAWGLRLGESSSYDFDIWGQGTMVTVSSTREQKLISEEDLAKPTTTPAPRPPTPAPTIASQPLSLRPEACRPAAGGAVHTRGLDFACDIYIWAPLAGTCGVLLLSLVITLYCKRGRKKLLYIFKQPFMRPVQTTQEEDGCSCRFPEEEEGGCELRVKFSRSADAPAYQQGQNQLYNELNLGRREEYDVLDKRRGRDPEMGGKPRRKNPQEGLYNELQKDKMAEAYSEIGMKGERRRGKGHDGLYQGLSTATKDTYDALHMQALPPRSSGSGEGRGSLLTCGDVEENPGPHMTEYKPTVRLATRDDVPRAVRTLAAAFADYPATRHTVDPDRHIERVTELQELFLTRVGLDIGKVWVADDGAAVAVWTTPESVEAGAVFAEIGPRMAELSGSRLAAQQQMEGLLAPHRPKEPAWFLATVGVSPDHQGKGLGSAVVLPGVEAAERAGVPAFLETSAPRNLPFYERLGFTVTADVEVPEGPRTWCMTRKPGA
B2: SEQ ID NO: 22286: engineered NKG2D-YA domain attached to the N-terminus of the IgCL fragment of a SAR with Ab-TCR backbone (protein)
chain: MALPVTALLLPLALLLHAARPACLFNQEVQIPLTESYCGPCPKNWICYKNNCYQFFDESKNWYESQASCMSQNASLLKVYSKEDQDLLKLVKSAHWMGLVHIPTNGSWQWEDGSILSPNLLTIIEMQKGDCALYASSFKGYIENCSTPNTYICMQRTVLEGQPKANPTVTLFPPSSEELQANKATLVCLISDFYPGAVTVAWKADGSPVKAGVETTKPSKQSNNKYAASSYLSLTPEQWKSHRSYSCQVTHEGSTVEKTVAPTECSPIKTDVITMDPKDNCSKDANDTLLLQLTNTSAYYMYLLLLLKSVVYFAIITCCLLRRTAFCCNGEKSRAKRSGSGATNFSLLKQAGDVEENPGPTSATMDWIWRILFLVGAATGAHSGPQVQLQESGGGLAQAGGSLRLSCAASGRTFSMGWFRQAPGKEREFVAAITYSGGSPYYASSVRGRFTISRDNAKNTVYLQMNSLKPEDTAVYYCAANPTYGSDWNAENWGQGTQVTVSSGSGGGGSGGGGSGGGGSFEQVQLQQPGAELVKPGASVKMSCKASGYAFSSYWINWMKQKPGQGLEWIGQIYPGDGDTNYNGKFKGRATLTADTSSSTAYMQLSSLTSEDSAVYFCARSITTVVGCAMDYWGQGTSVTVSSTRASTKGPSVFPLAPSSKSTSGGTAALGCLVKDYFPEPVTVSWNSGALTSGVHTFPAVLQSSGLYSLSSVVTVPSSSLGTQTYICNVNHKPSNTKVDKRVEPKSCEVKTDSTDHVKPKETENTKQPSKSCHKPKAIVHTEKVNMMSLTVLGLRMLFAKTVAVNFLLTAKLFFLRAKRSGSGVKQTLNFDLLKLAGDVESNPGPSRGHMTEYKPTVRLATRDDVPRAVRTLAAAFADYPATRHTVDPDRHIERVTELQELFLTRVGLDIGKVWVADDGAAVAVWTTPESVEAGAVFAEIGPRMAELSGSRLAAQQQMEGLLAPHRPKEPAWFLATVGVSPDHQGKGLGSAVVLPGVEAAERAGVPAFLETSAPRNLPFYERLGFTVTADVEVPEGPRTWCMTRKPGA
B3: SEQ ID NO: 22287: NKG2D-YA-G4Sx3-NKG2D-YA domain attached to the hu-mROO5-1 vH fragment of an Ab-TCR via a G4S linker (protein)
chain: MALPVTALLLPLALLLHAARPACEVQLLESGGGLIQPGGSLRLSCAASGFTFSSHAMTWVRQAPGKGLEWVSAISGSGDYTHYADSVKGRFTISRDNSKNTVYLQMNSLRAEDSAVYYCAKDEDGGSLLGHRGQGTLVTVSSGTGGGGSGGGGSGGGGSEFDIQMTQSPSSLSASVGDRVTITCKASDHINNWLAWYQQKPGQAPKLLIYGATTLETGVPSRFSGSGSGTDYTLTISSLQPEDFATYYCQQSWNTPWTFGQGTKLEIKRLEGQPKANPTVTLFPPSSEELQANKATLVCLISDFYPGAVTVAWKADGSPVKAGVETTKPSKQSNNKYAASSYLSLTPEQWKSHRSYSCQVTHEGSTVEKTVAPTECSGRADCGFTSESYQQGVLSATILYEILLGKATLYAVLVSALVLMAMVKRKDSRGRAKRSGSGATNFSLLKQAGDVEENPGPTSTMDWIWRILFLVGAATGAHSLFNQEVQIPLTESYCGPCPKNWICYKNNCYQFFDESKNWYESQASCMSQNASLLKVYSKEDQDLLKLVKSAHWMGLVHIPTNGSWQWEDGSILSPNLLTIIEMQKGDCALYASSFKGYIENCSTPNTYICMQRTVSGGGGSGGGGSGGGGDLFNQEVQIPLTESYCGPCPKNWICYKNNCYQFFDESKNWYESQASCMSQNASLLKVYSKEDQDLLKLVKSAHWMGLVHIPTNGSWQWEDGSILSPNLLTIIEMQKGDCALYASSFKGYIENCSTPNTYICMQRTVGSGGGGSGGGGSGGGGSFEQVQLQQPGAELVKPGASVKMSCKASGYAFSSYWINWMKQKPGQGLEWIGQIYPGDGDTNYNGKFKGRATLTADTSSSTAYMQLSSLTSEDSAVYFCARSITTVVGCAMDYWGQGTSVTVSSTRASTKGPSVFPLAPSSKSTSGGTAALGCLVKDYFPEPVTVSWNSGALTSGVHTFPAVLQSSGLYSLSSVVTVPSSSLGTQTYICNVNHKPSNTKVDKRVEPKSCIPEDTFFPSPESSCDVKLVEKSFETDTNLNFQNLSVIGFRILLLKVAGFNLLMTLRLWSSRAKRSGSGVKQTLNFDLLKLAGDVESNPGPSRGHMTEYKPTVRLATRDDVPRAVRTLAAAFADYPATRHTVDPDRHIERVTELQELFLTRVGLDIGKVWVADDGAAVAVWTTPESVEAGAVFAEIGPRMAELSGSRLAAQQQMEGLLAPHRPKEPAWFLATVGVSPDHQGKGLGSAVVLPGVEAAERAGVPAFLETSAPRNLPFYERLGFTVTADVEVPEGPRTWCMTRKPGA
B4: 22294 (protein)
chain: MALPVTALLLPLALLLHAARPQLQLQESGPGLVKPSETLSLTCTVSGDSISSGDYYWGWIRQPPGKGLEWIGHIYYSGVTYYNPSLKSRVTISVDTSRNQFSLKLSSVTAADTAVYYCTREDSSNWRSRGQGTLVTVSSLEGSIPEDTFFPSPESSCDVKLVEKSFETDTNLNFQNLSVIGFRILLLKVAGFNLLMTLRLWSSRAKRSGSGVKQTLNFDLLKLAGDVESNPGPTSATMDWIWRILFLVGAATGAHSEFMDPDLEIRAAFLRQRNTALRTEVAELEQEVQRLENEVSQYETRYGPLGGGKTRGSGRADCGFTSESYQQGVLSATILYEILLGKATLYAVLVSALVLMAMVKRKDSRGRAKRSGSGATNFSLLKQAGDVEENPGPSRGHMTEYKPTVRLATRDDVPRAVRTLAAAFADYPATRHTVDPDRHIERVTELQELFLTRVGLDIGKVWVADDGAAVAVWTTPESVEAGAVFAEIGPRMAELSGSRLAAQQQMEGLLAPHRPKEPAWFLATVGVSPDHQGKGLGSAVVLPGVEAAERAGVPAFLETSAPRNLPFYERLGFTVTADVEVPEGPRTWCMTRKPGA

Legend:
LNCaP cells = assay: JNG assay, co-culture with LNCaP cells; assay type: cell-based; settings: for GFP induction: LNCaP cells, only in the presence of SAR-adaptor PSMA-USC76-chVH-G4S-ULBP2-S3 (SEQ ID NO: 23114)
Experimental: Cellular supernatant is collected and assayed for the induction of cytokines (e.g., IL2).
JNG (Jurkat cells expressing EGFP under an NFAT promoter) were infected with lentiviral vectors encoding different single chain and multi-chain SARs by spinfection in the presence of 8 µg/ml of Polybrene® (Sigma, Catalog no. H9268). The Jurkat-NFAT-GFP cells are engineered in such a way that the IL-2 promoter, which carries NFAT binding sites, is cloned upstream of the GFP gene. These cells have been used to study signaling via TCR and CAR. The different SARs were stably expressed in Jurkat NFAT-GFP cells by lentiviral mediated gene transfer, followed by selection with puromycin or blasticidin. No drug selection was used in case the construct lacked an antibiotic resistance gene. The SAR-expressing Jurkat-NFAT-GFP cells were cocultured with the target cells at E:T ratio of approximately 1:2 for approximately 4 hours to 18 hours. When the interaction between SIRs and their target antigen results in activation of the NFAT pathway, GFP expression is induced. […] GFP expression was monitored by FACS analysis. The Jurkat-NFAT-GFP (parental) cells were used as control. The structure of different constructs can be determined based on their names. For example, the construct CD8SP-CD19-hu-mROO5-1-vL-[hTCRa-C SDVP]-F-F2A-Spe-IgHSP-Apa-CD20-vHH-2HCD25-G4S-CDl9-hu-mROO5-1-vH-Mlu-[hTCRb-KACIAH]-F-P2A-PAC has the following modules from 5′ to 3′ direction: a CD8 signal peptide (CD8SP), the CD19 targeting hu-mROO5-1 vL fragment (CD19-hu-mROO5-1), Xho1 cloning site, human TCRa constant chain containing CSDVP mutations (hTCRa-CSDVP), Furine cleavage site (F), F2A ribosomal skip sequence (F2A), SpeI site, human IgH signal peptide (IgHSP), Apa I restriction enzyme site, camelid CD20-2HCD25-VHH module targeting CD20, BamHI restriction enzyme site, Glycinex4-serine linker (G4S), BstI restriction enzyme site, CD19-hu-mROO5-1-vH fragment targeting CD19, Mlu I restriction enzyme site, human TCRb constant chain containing KACIAH mutations ([hTCRb-KACIAH]), Furine cleavage site (F), P2A ribosomal skip sequence and Puromycin resistance gene (PAC). The sequence of the other constructs in the table can be similarly determined from their names and by referring to the different Tables of this disclosure that provide the names and SEQ ID NO of the different modules. Alternatively, the composition and modular architecture of the different SAR constructs can be determined from their sequences by bioinformatics tools, including using nucleic acid and amino acids homology searches. A SAR is considered positive in the assay in case the SAR expressing Jurkat-NFAT-GFP cells show greater % GFP positive cells when cultured with the target cell line as compared to parental Jurkat-NFAT-GFP cells. The signs +/-, +, 2+ etc. after the name of the cell lines indicate the relative degree of positivity on the Jurkat-NFAT-GFP assay as measured by the % GFP positive cells after culture of the SAR expressing Jurkat-NFAT-GFP cells with that cell line above the % GFP cells observed in parental Jurkat NFAT-GFP cells serving as controls. In general, the number +/-, +, 2+, 3+, 4+, 5+ refer to approximately 5%, 10%, 20%, 30%, 40% and 50% GFP positive cells. The % of GFP induction in the above assay is dependent not only the relative strength of the SAR but also, among other factors, on the relative level of expression of the SAR in the JNG cells and the relative level of expression of the target antigen in the target cell line. To control for the difference in gene transduction efficiency of the different SAR constructs, the experiment was conducted with JNG cells transduced with SAR constructs co-expressing a drug resistance gene (e.g., puromycin or PAC) followed by drug selection to generate a stable population of SAR-expressing cells. […]

RAJI cells = assay: JNG assay, co-culture with RAJI cells; assay type: cell-based; settings: co-culture with RAJI cells
Summary of the method: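 Jurkat-NFAT-GFP (JNG) cells stably expressing SAR constructs via lentiviral transduction and puromycin/blasticidin selection were cocultured with target cells at E:T ~1:2 for ~4–18 h. NFAT-driven GFP was measured by FACS versus parental JNG cells; scores +/- to 5+ denote ~5–50% GFP-positive cells.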

Molecule | GFP induction (relative degree of positivity) (LNCaP cells; PSMA-expressing LNCaP cells) | GFP induction / activity (RAJI cells) | GFP induction (LNCaP cells) | NFAT-GFP ASSAY: LNCaP with PSMA-USC76-chVH-EZIP (LNCaP cells; LNCaP in presence of SAR adaptor PSMA-USC76-chVH-EZIP)
B1 | +5.5 | able to effectively induce GFP | – | –
B2 | – | robust induction of GFP | induction of GFP | –
B3 | – | robust induction of GFP | induction of GFP | –
B4 | – | – | – | +1
